{"source": "paper PMC6650547", "about": "(mBio, 2019)", "molecular_target": "T1, His-SUDV-NP(34-367) (Sudan virus (SUDV), strain Boniface, UniProt Q9QP77 34-367)", "T1 sequence": "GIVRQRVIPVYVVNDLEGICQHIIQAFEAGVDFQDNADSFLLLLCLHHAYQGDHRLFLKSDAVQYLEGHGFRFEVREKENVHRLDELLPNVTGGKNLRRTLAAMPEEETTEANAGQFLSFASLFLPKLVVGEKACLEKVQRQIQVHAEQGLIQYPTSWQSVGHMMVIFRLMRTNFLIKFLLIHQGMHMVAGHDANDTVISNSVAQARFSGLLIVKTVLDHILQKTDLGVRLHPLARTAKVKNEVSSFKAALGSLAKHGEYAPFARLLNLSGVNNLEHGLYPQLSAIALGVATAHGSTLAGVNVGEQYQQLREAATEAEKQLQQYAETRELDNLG", "assay": "BLI; […] ([…]), 60 s association, 60 s dissociation; […]; Octet Red", "conditions": "both partners purified", "data": [{"binder": "MQQDRTYRHHGPEVSGWFSEQLMTGKIPLTEVFV", "note": "[SUDV VP35 wild-type chaperone domain peptide (residues 1 to 34)]", "values": [{"measurement": "Kd", "value": "~3.86", "unit": "nM"}]}]}
